Reference: the DeepSol protein solubility set

Experiment: soluble on expression in E. coli; label from the status in PepcDB or PDB records

Sequence | soluble on expression in E. coli
MKKVLIKGAMALLLSSYSMIVSAEDKTITLMLDWFVNPNHGPVVVAQQKGYFKEEGLNITIQEPADPSMPAKLVAANNIDLAISYQTSLTIDVAAGLPLIRSATLIATPLNTLMVLDNGKINSLADLKGKKIGIAIAGNEEATIGTMLKTENVNFSDVNIINVGWALSSSLASGKVDAIWGGLRNFETNQLALEGYKAKSFFPEEHGVPSYDELVFVANAKTYDADALKKFNHAIEKATQFIVNHPEESWKTFISYAPDTLNNELNKRAWNDTLTRFALRPSAVDLQRYDRFSDFMYRHQMIKTQPKAQNFVPVL | not soluble
MKKYEIIFKKLEEDILKGHYQMGDYLPPEMELSQTYASSRDTVRKALQLLTKAGFIKTVQGRGSQIIKRERINFPVSQLTSYQELVKQLQMNVKTNVIAIDKLIVDEKLTKLTGFENKGLVWRITRQRVIDGVASILDTDYLDKALIPHMTREIAEHSIYDYLENQLKLDIAYAQKIITIDQVSQKDKILLDLDSENHVVSVKSKVYLSNQQQFQFTESRHKLEKFRFVDFARRHRD | not soluble
MKKYSFPVTYENVRFPPNGQLKLPVMPAEPFYDAEKGEKKYKSTKRMIEARGVEEVHTELIHEQYGLAAVSGGFIDSDDFKFIQDRINKNLIDNQFSVWRVDAPWLPRTKKAQGTRLGGGKGSIQKYVTPVRANRIILEVGGHITEIEAKAFLLYLCERFSFPVEFVSETMLAERRKKAEEERAMNKNGFNWGKVIKYNMQNCNSWLSSYDVAWKGKYR | not soluble
MKLKIVFFGASLAGKSTTVRKLYEILKEKGLVKGEFMSIDTDEKRTLFVEMFLSKIPIDGQEIDFKILTTPGQFRLHPLRKAIMQGVDGLVFTVDSQTGREEINFLVLRETAHVLKDSTWIYTQYPSLFSTTREIFPTHFPLEHHHHHH | not soluble
MKLLKKPAGLKKRKVISKRIKIEKKPSSEDEGSSDEEVPKLDGEGSLDGSEDEDDGTVTVEKGGVKKHKLDLEKLKQSDPEFFKFLQQEDADLLNMEDDGDDDEDDDEDDEDEEEEESDDDEDDEEDDDKTKIKKIRKPKIKSDNSGRLIVDSNVYSYLQQVLVLDDETSTPTNPSDVRMAVDVFVACVARVGADIEAPKYVINEQSIFEAVVRMCFQAMPDILKRLLKAKPEGDKVLFSKTAIKKYQTYVRTYLHAMIVFLNEVQTTEVLIATIKAMTRLVDLYAHFSRMSKLLIKAVVRIWSRKTLECRLPAFVCMNLLVKNYPQHFVPLYKTAYVAFVANSKIVTNETWPLLQFMHRTFAELTILNPEQAYKYAFVYIRQTAVHLRNAMISKGRKDLIFSIYNWQMMQCMYMWVRVIAKAHSVNGAEQIGELVYPLIQVIVGIFKLCNAPTFLPLRLHCCQLLIQLQASCTNYIPILQVSCDCLEELARELKSKPKPVKGAVKLPDIECTLKCSSQFSDLPQWRKVISEHVFRTMMQSAHLLASQAAFPDVVLPINHRISAILETMKNGDHAHLFRGFQTKLKEHSRFVLDVLARKSVDINDEMQVRAVRFDLNNHDSPIKTFYRQWEKVWKMKERSAVENSKKDDKKKKKEEEAAAAKKRKPNETVEDEDDVKPEVSKAKRKRIKIGAAAKKADASVPDQFADMSMWSDED | soluble
MKLPVMSPEHSAQLQAFEAKILSNHAKIEAWFRTQWSVHRPPFYGSVDIRNAGYKISSIDMNLFPGGFNNLNPNFIPLAAVAAQDAVQRACETAKSVLIIPENHTRNTFYLQNVYALGEILRSAGYEVRLGSLNPEVTEPTEFETALGDKILLEPLLRTRDRVHLADGFSPCVVLLNNDLSAGIPDILKGISQTVLPPLHGGWTTRRKTNHFGAYNQVTAEFAKLIGIDEWQINPYFEKIGGLDFQGREGEDALAEAVERVLAKIQAKYDESGITDKPFVIVKADAGTYGMGVMSVKSADEVRGLNRKNRNKMAKVKEGLEVSEVIVQEGIYTYETLNGAVCEPVVYMMDRFVIGGFFRVHEGRGADENLNAGGMVFVPLSNSIPTGNGDNSQEAPEACKRVFEQWDSLGMPRSEKDCDVDNEHNRLYVYGVMARLSLLAASIELEETA | soluble
MKLRRSMLFVPGSNAAMLSNSFIYKPDSIMFDLEDAVALKEKDSARLLVAHALQHPLYKEIETVVRVNPLDSEFGLLDLNSVVRAGVDVVRMPKTESAQDVLDMDHAITEIEKACGREAGSTKMLAAIESPLGITQANQIAFASKRLIGIALGAEDYVRNLKTERSPEGIELLFARCSILQAARAAGIQAFDTVYSNANNEEGFLKEAALIKQLGFDGKSLINPRQIELLHNLFAPTQKDVEQAKRIIEAAVEAERQGAGVVSLNGKMIDAPIIDRAKLVLERAKSGIREELEHHHHHH | soluble
MKLSDMQLFRGLEEDDISSLLSCLNSVKRNYKKGEVILSEGSIIENIGIVLSGMAMISCNEIWGNTSILGSVAPGSVFAEVYACIPGQPMLVTVSAVEDTSVLFMNVGRVLTTCTNACPFHTNLARNLLTVCAHKSLQLSQRILHTSSKSIRGRLMSYFSECAKHAGSNSFLIPYNRQQLADYLNVDRSTMCNELSKMQKDGMIEYKKNRILLKD | not soluble
MKLSVYVASAFSKDHKGGNKAGVVFIENSLTTTQKMAIAKQLGYAETAFISESEIADYKFEYFTPKEEVDLCGHATIGSFAILMHLNKLFRNRYTIETNSGVLTITIKDDSIFMEQNNPIFYDVVSPNEFIDCFDMKAIDNKYPIQIVSTGLKDILIPIKSETRLHALQPSFEKIKEISKYYNVVGMHLYTFNDDRIICRNFAPLYDINEEAATGTSNGALACYLHEQHNLQKEVYVFEQGYSLQSPSEILVTLATNSKNEIEKVYVGGKGYYCETKCLNVENME | not soluble
MKLVLAVIQDADAAALMRALSEQHFEATKLASTGGFLREGNTTLMIGVDDQRLDTLRTLIGQTCRSRTRLVPARGLVSESEGGVAQEPVEVPVGGAVIFVLGVEDFVKV | not soluble
MKLYNLKDHNEQVSFAQAVTQGLGKQQGLFFPHDLPEFSLTEIDEMLNQDFVSRSAKILSAFIGDEIPQQILEERVRAAFAFPAPVAQVESDVGCLELFHGPTLAFKDFGGRFMAQMLTHISGDKPVTILTATSGDTGAAVAHAFYGLENVRVVILYPRGKISPLQEKLFCTLGGNIETVAIDGDFDACQALVKQAFDDEELKTALGLNSANSINISRLLAQICYYFEAVAQLPQGARNQLVISVPSGNFGDLTAGLLAKSLGLPVKRFIAATNVNDTVPRFLHDGKWAPKATQATLSNAMDVSQPNNWPRVEELFRRKIWRLTELGYAAVDDTTTQQTMRELKAKGYISEPHAAVAYRALRDQLNPGEYGLFLGTAHPAKFKESVESILGETLALPEALAERADLPLLSHHLPADFAALRKLMMTRQ | not soluble
MKLYQHIETLWDYMQLKQDLKPADCLFVMCSNDVRVAEHAAALYHQKLAPLIVFSGGEGRFTDGLFEKSEAETFADIARLAGVPSDAILVETRSTNSGENVRFTEQLLKEKGIQCESIILVQKPFMERRAIATFEKQWQSPYSQVQVSSTAHPFFEYINEDMPLMMVLEALMEDFSRVKSYPEKGFQTKQDIPNQVDSSYQVLLERFGFDLVLEHHHHHH | not soluble
MKMKEFLDLLNESRLTVTLTGAGISTPSGIPDFRGPNGIYKKYSQNVFDIDFFYSHPEEFYRFAKEGIFPMLQAKPNLAHVLLAKLEEKGLIEAVITQNIDRLHQRAGSKKVIELHGNVEEYYCVRCEKKYTVEDVIKKLESSDVPLCDDCNSLIRPNIVFFGENLPQDALREAIGLSSRASLMIVLGSSLVVYPAAELPLITVRSGGKLVIVNLGETPFDDIATLKYNMDVVEFARRVMEEGGIS | soluble
MKMNLSTPFPLGATLDAEGCNFAIYAPANRDILLALFHADGSYETHQLEHEYAGVKHTHISGIHAGQKYGYLIQLNDELHYISDPYARALEGPLHYAPPFDSHKSFDLPKCVVTDTHFDWQNVAKPRIARDEMVLFETHVKGLTQLNPDVEKALRGKYLGLVSQPMLDFYRQQNINTLQLLPIAACMHEPHLLESGKVNYWGYNPYVFMAPDPRYASKDAVNELKTTIRELHRNGIQVILDVVYNHTAEGGTNGPVFNLKALDPNYYLHHGDHYANYTGCGNTVDLSNQAALNLVMDTLRCWVTEYQIDGFRFDLAATLGRRGDEFSKEAAFFKAVAQDPVLREVKLIAEPWDIGPNGYQVGNFPFGWNETNDKLRDITRSFWRGDLGFLKEFATRLMGSRDLYSAANWPYKLTVNYITYHDGFTLQDLVSYKHKHNEANGEQNRDGHGDNRSDNYGFEGDTDSIVIRATRERQKRNFMASLLFAFGIPHILTADVLSHTQKGNNNAYCQDNDISWLNWENNETKQDFREWLAGMVAARQTYMVPFIRAFSGENRNNNRIAWRRVDGKPMEMDDWNRLSSVALHIGIGSDGPEMLYLINQTNAPARFVLPKDRQQDWRLICDTNMRHAQHGHAEGEVLQLPVSMSILHYQPKKKSA | soluble
MKNIRNFSIIAHIDHGKSTLSDRIIQICGGLSDREMEAQVLDSMDLERERGITIKAQSVTLDYKASDGETYQLNFIDTPGHVDFSYEVSRSLAACEGALLVVDAGQGVEAQTLANCYTAMEMDLEVVPVLNKIDLPAADPERVAEEIEDIVGIDATDAVRCSAKTGVGVQDVLERLVRDIPPPEGDPEGPLQALIIDSWFDNYLGVVSLIRIKNGTLRKGDKVKVMSTGQTYNADRLGIFTPKQVDRTELKCGEVGWLVCAIKDIHGAPVGDTLTLARNPAEKALPGFKKVKPQVYAGLFPVSSDDYEAFRDALGKLSLNDASLFYEPESSSALGFGFRCGFLGLLHMEIIQERLEREYDLDLITTAPTVVYEVETTSREVIYVDSPSKLPAVNNIYELREPIAECHMLLPQAYLGNVITLCVEKRGVQTNMVYHGNQVALTYEIPMAEVVLDFFDRLKSTSRGYASLDYNFKRFQASDMVRVDVLINGERVDALALITHRDNSQNRGRELVEKMKDLIPRQQFDIAIQAAIGTHIIARSTVKQLRKNVLAKCYGGDISRKKKLLQKQKEGKKRMKQIGNVELPQEAFLAILHVGKDNK | soluble
MKNKLLVLSLGALCVSQIWESNRASAVVSGEKNPYVSESLKLTNNKNKSRTVEEYKKSLDDLIWSFPNLDNERFDNPEYKEAMKKYQQRFMAEDEALKKFFSEEKKIKNGNTDNLDYLGLSHERYESVFNTLKKQSEEFLKEIEDIKKDNPELKDFNEEEQLKCDLELNKLENQILMLGKTFYQNYRDDVESLYSKLDLIMGYKDEERANKKAVNKRMLENKKEDLETIIDEFFSDIDKTRPNNIPVLEDEKQEEKNHKNMAQLKSDTEAAKSDESKRSKRSKRSLNTQNHKPASQEVSEQQKAEYDKRAEERKARFLDNQKIKKTPVVSLEYDFEHKQRIDNENDKKLVVSAPTKKPTSPTTYTETTTQVPMPTVERQTQQQIIYNAPKQLAGLNGESHDFTTTHQSPTTSNHTHNNVVEFEETSALPGRKSGSLVGISQIDSSHLTEREKRVIKREHVREAQKLVDNYKDTHSYKDRINAQQKVNTLSEGHQKRFNKQINKVYNGK | not soluble
MKNSDLYNGTLRTSFVPGSTLEAGIIFRATIPNGEFYEKEAGLSYYWLYILNGTVSFQRVENGEISNENKKYFPYGTSSAYEAKILLDDGDIYCYLNNRLVFHYTDENPLQGHQYGLKSEGSNLIVTEFATSSLEAPQHNEYLIFGHSYTDFWKTYKQDFHKYQDIYNIGIGGAITSDWCSEGYQKEVIAYQPKYGIYWNGINDINRNIAPKTIGDNVRRMAMEIKAAVPGFHLVLIGVCRCPIDSGRRSDIASTNNYYKQIASDLDYVTYIDTELMYCDSNGNEIANYFTDGLHPTHDAYIMCANAIMNTIK | soluble
MKPEKIDCNFKLIYCEDEESKGGRLEFSLEEVLAISRNVYKRVRTNRKHHHHHH | soluble
